Assay results published in patent US20140357577A1, “HIV Membrane Fusion Inhibitors” (priority 2011, published 2014).
Starred links: 1 amine or outer side, 2 acyl side, 3 side chain; linkers in the order of their positions; H or OH if unused. Positions of bridges follow the written chain, without caps; N, C: chain ends. Non-standard residues stand in square brackets, D forms with d. *: point of attachment. pXylylene = c1cc(C[*:2])ccc1C[*:1]; tBuAla = CC(C)(C)C[C@H](N)C(=O)O; Suc = O=C(CCC(=O)[*:2])[*:1]; Pentanoyl = CCCCC(=O)*

Biological target: gp41 of HIV-1 strain HXB2D with mutation V38A (HIV-1 strain HXB2D, UniProt P04578)
Experiment: cell-based or functional assay

| Binder | fold change in EC50, HIV-HXB2D V38A mutant |
| --- | --- |
| Pentanoyl-ECYLCLIEELIRKAQEQQEKNEAALR-NH2 (linker 2-5 via pXylylene; SMILES CCCCC(=O)N[C@@H](CCC(=O)O)C(=O)N[C@H]1CSCc2ccc(cc2)CSC[C@@H](C(=O)N[C@@H](CC(C)C)C(=O)N[C@H](C(=O)N[C@@H](CCC(=O)O)C(=O)N[C@@H](CCC(=O)O)C(=O)N[C@@H](CC(C)C)C(=O)N[C@H](C(=O)N[C@@H](CCCNC(=N)N)C(=O)N[C@@H](CCCCN)C(=O)N[C@@H](C)C(=O)N[C@@H](CCC(N)=O)C(=O)N[C@@H](CCC(=O)O)C(=O)N[C@@H](CCC(N)=O)C(=O)N[C@@H](CCC(N)=O)C(=O)N[C@@H](CCC(=O)O)C(=O)N[C@@H](CCCCN)C(=O)N[C@@H](CC(N)=O)C(=O)N[C@@H](CCC(=O)O)C(=O)N[C@@H](C)C(=O)N[C@@H](C)C(=O)N[C@@H](CC(C)C)C(=O)N[C@@H](CCCNC(=N)N)C(N)=O)[C@@H](C)CC)[C@@H](C)CC)NC(=O)[C@H](CC(C)C)NC(=O)[C@H](Cc2ccc(O)cc2)NC1=O) [peptide 92] | 2 fold |
| Ac-ANYLALIEELIRAAQEQQEKNEAALR-NH2 [peptide 10] | 50 fold |
| Ac-ENYLALIEALIRAAQEQQEKNEAALL-NH2 [peptide 9] | 72 fold |
| Suc-ANYLALIEALIRAAQEQQEKNEAALR-NH2 (SMILES CC[C@H](C)[C@H](NC(=O)[C@H](CC(C)C)NC(=O)[C@H](C)NC(=O)[C@H](CCC(=O)O)NC(=O)[C@@H](NC(=O)[C@H](CC(C)C)NC(=O)[C@H](C)NC(=O)[C@H](CC(C)C)NC(=O)[C@H](Cc1ccc(O)cc1)NC(=O)[C@H](CC(N)=O)NC(=O)[C@H](C)NC(=O)CCC(=O)O)[C@@H](C)CC)C(=O)N[C@@H](CCCNC(=N)N)C(=O)N[C@@H](C)C(=O)N[C@@H](C)C(=O)N[C@@H](CCC(N)=O)C(=O)N[C@@H](CCC(=O)O)C(=O)N[C@@H](CCC(N)=O)C(=O)N[C@@H](CCC(N)=O)C(=O)N[C@@H](CCC(=O)O)C(=O)N[C@@H](CCCCN)C(=O)N[C@@H](CC(N)=O)C(=O)N[C@@H](CCC(=O)O)C(=O)N[C@@H](C)C(=O)N[C@@H](C)C(=O)N[C@@H](CC(C)C)C(=O)N[C@@H](CCCNC(=N)N)C(N)=O) [peptide 7] | 33 fold |
| Suc-ANYLALIEAL[tBuAla]RAAQEQQEKNEAALR-NH2 (SMILES CC[C@H](C)[C@H](NC(=O)[C@H](CC(C)C)NC(=O)[C@H](C)NC(=O)[C@H](CC(C)C)NC(=O)[C@H](Cc1ccc(O)cc1)NC(=O)[C@H](CC(N)=O)NC(=O)[C@H](C)NC(=O)CCC(=O)O)C(=O)N[C@@H](CCC(=O)O)C(=O)N[C@@H](C)C(=O)N[C@@H](CC(C)C)C(=O)N[C@@H](CC(C)(C)C)C(=O)N[C@@H](CCCNC(=N)N)C(=O)N[C@@H](C)C(=O)N[C@@H](C)C(=O)N[C@@H](CCC(N)=O)C(=O)N[C@@H](CCC(=O)O)C(=O)N[C@@H](CCC(N)=O)C(=O)N[C@@H](CCC(N)=O)C(=O)N[C@@H](CCC(=O)O)C(=O)N[C@@H](CCCCN)C(=O)N[C@@H](CC(N)=O)C(=O)N[C@@H](CCC(=O)O)C(=O)N[C@@H](C)C(=O)N[C@@H](C)C(=O)N[C@@H](CC(C)C)C(=O)N[C@@H](CCCNC(=N)N)C(N)=O) [peptide 11] | 26 fold |
| Ac-ENYLALIEALIRAAQEQQEKNEAALR-NH2 [peptide 8] | 46 fold |
| Ac-ANYLALIEALIRAAQEQQEKNEAALR-NH2 [peptide 6] | 51 fold |
